Earlier results as cited in paper PMC5979509.

Molecular target: Neuropilin-1 (Homo sapiens) (UniProt O14786)
Test: radioligand binding

Chain of UniProt O14786 (O14786 22-923): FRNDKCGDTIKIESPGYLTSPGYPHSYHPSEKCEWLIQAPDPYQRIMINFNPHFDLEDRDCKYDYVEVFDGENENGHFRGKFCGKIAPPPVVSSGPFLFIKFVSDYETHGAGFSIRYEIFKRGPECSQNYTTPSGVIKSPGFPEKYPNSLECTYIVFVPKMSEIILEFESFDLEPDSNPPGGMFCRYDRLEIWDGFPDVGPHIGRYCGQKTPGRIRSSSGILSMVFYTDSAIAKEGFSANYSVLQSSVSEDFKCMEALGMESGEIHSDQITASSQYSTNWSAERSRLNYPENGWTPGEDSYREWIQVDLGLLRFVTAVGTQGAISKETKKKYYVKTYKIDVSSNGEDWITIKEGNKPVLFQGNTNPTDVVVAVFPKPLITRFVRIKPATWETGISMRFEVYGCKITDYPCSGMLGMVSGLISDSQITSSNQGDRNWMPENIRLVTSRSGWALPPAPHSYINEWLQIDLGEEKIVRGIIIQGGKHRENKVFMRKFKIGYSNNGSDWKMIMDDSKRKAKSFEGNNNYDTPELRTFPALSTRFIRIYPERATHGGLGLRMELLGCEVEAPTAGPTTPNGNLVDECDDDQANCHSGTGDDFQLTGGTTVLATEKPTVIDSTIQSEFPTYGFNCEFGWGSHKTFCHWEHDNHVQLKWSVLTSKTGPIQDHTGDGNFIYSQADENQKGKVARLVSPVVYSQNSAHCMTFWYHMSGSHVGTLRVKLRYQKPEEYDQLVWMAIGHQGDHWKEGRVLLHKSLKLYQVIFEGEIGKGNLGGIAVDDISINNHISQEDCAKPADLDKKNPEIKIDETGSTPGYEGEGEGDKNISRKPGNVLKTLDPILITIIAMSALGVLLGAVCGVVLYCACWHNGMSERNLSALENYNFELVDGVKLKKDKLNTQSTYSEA

Kd: < 3 nM
Substance: VEGF165a (from UniProt P15692)
